One may read the Kd as the concentration at which binding is half-saturated. A higher Kd goes with lower affinity. For orientation: koff means a measure of how fast the partners let go of each other. In general, kon refers to the rate constant with which the complex forms.

The labels stand for the following.
B2: Human Tie2 ECD (residues 23-735 of human Tie2) (receptor, UniProt Q02763 23-735, looked up)
chain: AMDLILINSLPLVSDAETSLTCIASGWRPHEPITIGRDFEALMNQHQDPLEVTQDVTREWAKKVVWKREKASKINGAYFCEGRVRGEAIRIRTMKMRQQASFLPATLTMTVDKGDNVNISFKKVLIKEEDAVIYKNGSFIHSVPRHEVPDILEVHLPHAQPQDAGVYSARYIGGNLFTSAFTRLIVRRCEAQKWGPECNHLCTACMNNGVCHEDTGECICPPGFMGRTCEKACELHTFGRTCKERCSGQEGCKSYVFCLPDPYGCSCATGWKGLQCNEACHPGFYGPDCKLRCSCNNGEMCDRFQGCLCSPGWQGLQCEREGIQRMTPKIVDLPDHIEVNSGKFNPICKASGWPLPTNEEMTLVKPDGTVLHPKDFNHTDHFSVAIFTIHRILPPDSGVWVCSVNTVAGMVEKPFNISVKVLPKPLNAPNVIDTGHNFAVINISSEPYFGDGPIKSKKLLYKPVNHYEAWQHIQVTNEIVTLNYLEPRTEYELCVQLVRRGEGGEGHPGPVRRFTTASIGLPPPRGLNLLPKSQTTLNLTWQPIFPSSEDDFYVEVERRSVQKSDQQNIKVPGNLTSVLLNNLHPREQYVVRARVNTKAQGEWSEDLTAWTLSDILPPQPENIKISNITHSSAVISWTILDGYSISSITIRYKVQGKNEDQHVDVKIKNATITQYQLKGLEPETAYQVDIFAENNIGSSNPAFSHELVTLPES
notes: range 23-735; also called hTie2 ECD; hTie2

The target of series [1] is B2. In words: SPR (Biacore T200), hTie2 ECD amine-coupled on CM5, antibody as analyte, 1:1 model. The protocol:
HEPES-buffered saline (0.01 M HEPES and 0.15 M NaCl) containing 3 mM EDTA (ethylenediaminetetraacetic acid) and 0.05% (v/v) P20 detergent (HBS-EP+) was used as reaction and running buffer (BR100669, GE Healthcare). Human Tie2 ECD (produced in-house; residues 23-735 of human Tie2, GenBank accession number: AAH35514.2) was immobilized on the surface of a CM5 sensor chip by amine coupling using 10 mM acetate at a pH of 5.5. […] Analytes bound to the sensor chips were dissociated by washing with HBS-EP+running buffer for 300 seconds. Both association (Kₒₙ, M⁻¹s⁻¹) and dissociation (Koff, s⁻¹) constants were measured at 300-second intervals. The equilibrium dissociation constant (KD, M) was calculated as the ratio of off-rate to on-rate (Koff/kₒₙ). Kinetic parameters were determined with the global fitting function of Biacore Insight Evaluation Software using a 1:1-binding model.
After purification, binding kinetics of the obtained antibodies to hTie2 ECD were evaluated using SPR.

For series [2], the target named is T1, hTie2 Ig3-Fn3 D682C/N691C (constitutive Tie2 dimer) (human, UniProt Q02763 349-738, Covalent homodimer: two copies of this chain joined by two intermolecular disulfide bonds between the introduced cysteines (C682 of one chain with C691 of the other); one copy is given.).
T1 construct: The positions count on full-length human Tie2; the Ig3-Fn3 entry is used; also called Tie2 dimeric mutant; hTie2 Ig3-Fn3 N691C/D682C
T1 chain: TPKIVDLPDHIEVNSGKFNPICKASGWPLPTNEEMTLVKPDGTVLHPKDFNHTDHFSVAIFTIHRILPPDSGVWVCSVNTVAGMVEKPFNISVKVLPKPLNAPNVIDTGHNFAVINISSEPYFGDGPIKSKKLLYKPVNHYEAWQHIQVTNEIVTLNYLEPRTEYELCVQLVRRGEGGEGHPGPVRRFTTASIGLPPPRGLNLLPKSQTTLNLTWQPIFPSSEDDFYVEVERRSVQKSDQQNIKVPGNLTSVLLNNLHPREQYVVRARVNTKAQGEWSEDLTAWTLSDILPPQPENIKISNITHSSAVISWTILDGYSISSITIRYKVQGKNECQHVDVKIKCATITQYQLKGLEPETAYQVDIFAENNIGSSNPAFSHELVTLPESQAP
The series is described as follows: size-exclusion chromatography and negative-stain EM of the complex. For orientation: SEC sorts molecules by how far they enter the pores of the column.
Excerpt: The two residues D682 and N691 involved in the homotypic Fn3-Fn3′ interaction were mutated to cysteines (D682C and N691C) to introduce a disulfide bond (FIGS. 6d and e). […] After removal of aggregates by SEC, the structural arrangement of the resulting complex (peak of the shoulder) was examined using negative-stain electron microscopy (EM) (FIGS. 6f and 7).

Series [3] concerns the molecule itself. The series is described as follows: SEC-MALS (self-association).
For series [4], the target named is B2. The series is described as follows: SPR (Biacore), hTie2 ECD immobilised on the chip (y axis 'RU (Tie2 ECD)'), antibody as analyte at 128, 256, 512, 1024 and 2048 nM, 1:1 binding model [panel i]. Background: Surface plasmon resonance follows binding to a sensor surface in real time, without labels.

B1: hTAAB, hTie2-activating mouse monoclonal antibody (mouse IgG1) (antibody, V domains shown)
VH: QVQLQQPGAELVRPGASVKLSCKASGYSFTSYWMNWVKQRPGQGLEWIGMIHPSDSETRLNQKFMDKATLTVDKSSSTAYMQLSSPTSEDSAVYYCARGLYGNSWGQGTLVTVSA
VL: DIQMTQSPSSLSASLGERVSLTCRASQDIGISLNWLQQEPDGTIKRLIYATSSLDSGVPKRFSGSRSGSDYSLTISSLESEDFVDYYCLQYASSPYTFGGGTKLEIK
notes: Mouse IgG1 from hybridoma; Only the variable regions are tied to the whole antibody; also called mouse hTAAB; parental hTAAB
In series [1], B1 gave a Kd of 4.2 nM, an off-rate (koff) of 0.0006 s⁻¹ and a kon of 140000 M⁻¹ s⁻¹. Further, the binding result in series [2] was “binds”.
In the case of B2, the binding result in series [3] is “no binding (tested: 1 mg/ml)”.

B3: 3H7H12G4 (previously reported humanized antibody 3H7) (antibody, V domains shown)
VH: QVQLVQSGAEVKKPGASVKVSCKASGYTFTSYWMNWVRQAPGQGLEWMGMIHPSDSETRLNQKFMDRVTMTRDTSTSTVYMELSSLRSEDTAVYYCARGLYGNSWGQGTLVTVSS
VL: DIQMTQSPSSLSASVGDRVTITCRASQDIGISLNWLQQEPGKAPKRLIYATSSLDSGVPKRFSGSGSGTEFTLTISSLQPEDFATYYCLQYASSPYTFGQGTKVEIK
In series [4], B3 displayed a Kd of 1100 nM, a koff of 0.003 s⁻¹ and an on-rate (kon) of 2800 M⁻¹ s⁻¹.

These data come from US20240254240A1 (INSTITUTE FOR BASIC SCIENCE, published 2024).
